The conditions of data set [1]: cited from earlier work; for estimated concentration in the brain, tissue, organs, and solid tumors / estimated concentration in the serum: tamoxifen orally 20 mg/day.
Data set [2] has as its system U87MG: 1066 cells. The data set is described as follows: Modified ER-LBD validation in U87MG with mCherry reporter. The conditions noted are these: SB01066 reporter. It is filed as cell-based. As to the method:
About 16 hours before transduction 100k U87MG: 1066 cells were seeded into 16 wells in 12 well plate format. During transduction, cells in each well were transduced with 100k pg of virus of ERT2 variant constructs. After transduction, cells were split into 50k cells per well in a 24 well plate format, and treated with drug-free media or a range of endoxifen or 4-OHT drug conditions. About two days after treatment of cells with endoxifen or 4-OHT, cells were collected and mCherry reporter expression was quantified by flow cytometry.
Screening of the modified ER-LBD construct library identified a subset of ERT2 variants that were sensitive to endoxifen at 1 nM. Among this subset, 15 variants (Table 19) were validated in U87MG cells for their ability to activate an mCherry reporter (SB01066; FIG. 14B) at a range of concentrations of 0 pM, 10 pM, 50 pM, 100 pM, and 1 nM of endoxifen (FIG. 15A) and 4-OHT (FIG. 15B). Expression of mCherry was quantified about […] after treatment with endoxifen or 4-OHT.
Select ERT2 variants (Table 20) from the previous screens were further tested for sensitivity to endoxifen and 4-OHT, compared to wild-type ERT2. […] Fold activation was calculated by gMFI mCherry levels of each test condition divided by gMFI mCherry levels of U87MG cells transduced with the reporter (SB01066).

The subject of data set [3] is U87MG: 2357 reporter cell line. The data set is described as follows: ERT2 mutant transcriptional switch inducing an IL-12 payload (IL-12p70 ELISA). It is filed as cell-based. The following applies: 72 hours. The protocol: FIG. 28A depicts constructs and experimental methods for evaluating exemplary ERT2 mutant transcriptional switches for inducing expression of an IL-12 payload. U87MG cells were transduced with construct SB02357, comprising synthetic promoter comprising a 4×ZF-10 zinc finger binding site (SEQ ID NO: 59) linked to a minimal promoter operably linked to an IL-12 encoding sequence. This generated a U87MG: 2357 reporter cell line used for assessing the ability of ERT2 transcriptional switch constructs to activate transcription of the IL-12 payload in a ligand-dependent manner.
25k U87MG: 2357 IL-12 payload transduced line was transduced with MOI of 1 of the ERT2 constructs SB03422, SB06149, SB09626, SB09642, SB09652, and SB09657, which are described in Example 9. […] The next day, cells were split into ND or drug titration conditions to evaluate performance at a range of Endoxifen and concentrations. 72 hours later, supernatant was harvested for quantification of IL-12 by IL-12p70 ELISA. IL-12 levels were read with a spectrophotometer at wavelength 450 nm with wavelength correction to 540 nm according to manufacturer's protocol. A kit-provided standard to calculate detected levels of IL-12 in 100 μL of media harvested from ˜100k cells based on OD.

The test system of data set [4] is U87MG: 1066 reporter cell line. The data set is described as follows: ERT2 mutant transcriptional switch activity, mCherry reporter. The format is cell-based. The following applies: range of endoxifen concentrations. The protocol:
FIG. 26A depicts constructs and experimental methods for evaluating exemplary ERT2 mutant transcriptional switches. U87MG cells were transduced with the mCherry reporter construct SB01066, comprising synthetic promoter comprising a 4×ZF-10 zinc finger binding site (SEQ ID NO: 59) linked to a minimal promoter operably linked to an mCherry encoding sequence. This generated a U87MG: 1066 reporter cell line used for assessing transcriptional switch activity of ERT2 transcriptional switch constructs.
25k U87MG: 1066 reporter transduced line was transduced at a MOI of 1 with various ERT2 transcriptional switch constructs having the following structure: pSFFV: ZF10-1 (zinc finger DNA binding domain, SEQ ID NO: 84)_TCR linker (SEQ ID NO: 86)_p65 (transcriptional activation domain, SEQ ID NO: 64)_[…] linker (SEQ ID NO: 88)_ERT2 domain. The ERT2 mutants included a number of amino acid substitutions in addition to the “WT ERT2” mutations G400V/M543A/L544A/V595A.
The next day, cells were split into no drug or drug titration conditions to evaluate performance at a range of endoxifen and estradiol concentrations. Performance of each ERT2 mutant transcriptional switch was evaluated by their ability to translocate and bind to the zinc finger binding site upstream of mCherry and initiate mCherry expression.
The background normalized ND (0) conditions were divided by the average NV gMFI mCherry value in order to reflect any basal activity seen by each mutant. FIG. 26C depicts induced mCherry expression plotted against basal activity for each of the tested ERT2 transcriptional switch constructs.

Where a chain is given by its changes, count along the chain named. Names may count otherwise.

Data on eight molecules can be found in patent US20260022364A1, “ERT2 MUTANTS, INDUCIBLE CELL DEATH SYSTEMS, AND USES THEREOF” (Senti Biosciences, Inc., priority 2023, published 2026).

For `CC/C(=C(\c1ccc(O)cc1)c1ccc(OCCNC)cc1)c1ccccc1` [endoxifen], in data set [1], the “estimated concentration in the brain, tissue, organs, and solid tumors” value is given as 2.5 nM; the “estimated concentration in the serum” value is on record as 0.25 nM.

Regarding `CC/C(=C(\c1ccc(O)cc1)c1ccc(OCCN(C)C)cc1)c1ccccc1` [Construct 4-OHT, 4-hydroxytamoxifen], in data set [1], the “estimated concentration in the brain, tissue, organs, and solid tumors” value is on record as 0.4 nM; the “estimated concentration in the serum” value is 0.04 nM.

As to `CC/C(=C(\c1ccccc1)c1ccc(OCCN(C)C)cc1)c1ccccc1` [tamoxifen], in data set [1] (typical clinical dose of tamoxifen), the “average peak plasma concentration” value is “approximately 40 ng/ml”.

B1: wild-type ERT2: ERT2 with G400V/M543A/L544A/V595A, SEQ ID NO: 3; benchmark construct (protein)
chain: SAGDMRAANLWPSPLMIKRSKKNSLALSLTADQMVSALLDAEPPILYSEYDPTRPFSEASMMGLLTNLADRELVHMINWAKRVPGFVDLTLHDQVHLLECAWLEILMIGLVWRSMEHPVKLLFAPNLLLDRNQGKCVEGMVEIFDMLLATSSRFRMMNLQGEEFVCLKSIILLNSGVYTFLSSTLKSLEEKDHIHRVLDKITDTLIHLMAKAGLTLQQQHQRLAQLLLILSHIRHMSNKGMEHLYSMKCKNVVPLYDLLLEAADAHRLHAPTSRGGASVEETDQSHLATAGSTSSHSLQKYYITGEAEGFPATA
B1: in data set [2], the “4-OHT concentration at which mCherry reporter expression is activated” value is given as “about 25 nM” and the “endoxifen concentration at which mCherry reporter expression is activated” value is recorded as “about 25 nM”.

B2: SB09626: ERT2 mutant transcriptional switch construct pSFFV: ZF10-1_p65_ERT2 domain (Table 23) (protein)
chain: B1 chain with L73I, N132D, M140L, S182P, H243L
modifications: ERT2 domain of ZF10-1_p65_ERT2 construct
Consider B2, for which the “endoxifen concentration at which IL-12 expression is induced” value in data set [3] turned out to be 0.1 nM. Further, the “fold activation and induced mCherry levels compared to WT (SB03422)” value in data set [4] is “highest fold activation and induced mCherry levels”.

B3: SB09652: ERT2 mutant transcriptional switch construct pSFFV: ZF10-1_p65_ERT2 domain (Table 23) (protein)
chain: B1 chain with L73I, L110V, N132D, M140L, S182P, M236A, H243L
modifications: ERT2 domain of ZF10-1_p65_ERT2 construct
For B3, in data set [3], the “endoxifen concentration at which IL-12 expression is induced” value was 0.1 nM. Moreover, in data set [4], the “fold activation and induced mCherry levels compared to WT (SB03422)” value was “highest fold activation and induced mCherry levels”.

B4: SB09642: ERT2 mutant transcriptional switch construct pSFFV: ZF10-1_p65_ERT2 domain (Table 23) (protein)
chain: B1 chain with L103M, L128V, N132D, M140L, S182P, H243L
modifications: ERT2 domain of ZF10-1_p65_ERT2 construct
For B4, the “endoxifen concentration at which IL-12 expression is induced” value in data set [3] was 0.1 nM. Also, in data set [4], the “fold activation and induced mCherry levels compared to WT (SB03422)” value was “highest fold activation and induced mCherry levels”.

B5: SB09657: ERT2 mutant transcriptional switch construct pSFFV: ZF10-1_p65_ERT2 domain (Table 23) (protein)
chain: B1 chain with L73I, L103M, N132D, S182P, H243L
modifications: ERT2 domain of ZF10-1_p65_ERT2 construct
Take B5: the “endoxifen concentration at which IL-12 expression is induced” value in data set [3] is on record as 0.1 nM. Further, the “fold activation and induced mCherry levels compared to WT (SB03422)” value in data set [4] is “highest fold activation and induced mCherry levels”.
